According to publication PMC6368608:

Assays:
CH103-S14P (human) [1] = assay: SPR
[2] = target: CH103 lineage intermediate I3 (human); assay: SPR
CH103 (human) [3] = assay: SPR
CH106 (human) [4] = assay: SPR
CH103-S14P/G30S (human) [5] = assay: SPR
[6] = target: CH103 lineage intermediate I8 (human); assay: SPR
[7] = target: I8 (CH103 lineage intermediate) (human); assay: SPR; BIAcore T200; […]) 5 min at 50 µL/min, 10 min dissociation; […]; global 1:1 Langmuir fit; […]
CH103 (human) [8] = assay: as above
CH106 (human) [9] = assay: as above
[10] = target: I3 (CH103 lineage intermediate) (human); assay: as above
UCA-P14S (human) = assay: BLI; […] (AHC) […]; 1:1 model; […]
CH103 UCA (human) [11] = assay: BLI; […] (AHC) […]; 1:1 model; […]
UCA-S30G (human) = assay: BLI; […] (AHC) […]; 1:1 model; […]
I4-S14P/G30S (human) [12] = assay: BLI; […] (AHC) […]; 1:1 model; […]
CH103 (human) [13] = assay: BLI; […] (AHC) […]; 1:1 model; […]
UCA-S30G/S31G (human) = assay: BLI; […] (AHC) […]; 1:1 model; […]
CH106 (human) [14] = assay: BLI; […] (AHC) […]; 1:1 model; […]
CH103-S14P/G30S (human) [15] = assay: BLI; […] (AHC) […]; 1:1 model; […]
CH103 UCA-P14S (human) = assay: BLI; […]; mAb (20 ug/mL in PBS) […] (AHC) […], association 400 s, […]; 1:1 model; […]
CH103-S14P (human) [16] = assay: as above
CH103 UCA (human) [17] = assay: as above
[18] = target: CH103 UCA-S30G/S31G (human); assay: as above
CH103 UCA-S30G (human) = assay: as above
I4-S14P/G30S (human) [19] = assay: as above
CH103 (human) [20] = assay: as above
CH106 (human) [21] = assay: as above
I4-S14P (human) = assay: as above
CH103-S14P/G30S (human) [22] = assay: as above
[23] = target: C.CH505TF SOSIP.664.v4.1 (HIV-1 (C.CH505 transmitted/founder))
[24] = target: C.CH505TF gp120 (HIV-1 clade C, CH505 transmitted/founder) (UniProt M4M0W3); assay: SPR

CH106 (human), sequence (heavy, as listed by the source, chain 1 of 2): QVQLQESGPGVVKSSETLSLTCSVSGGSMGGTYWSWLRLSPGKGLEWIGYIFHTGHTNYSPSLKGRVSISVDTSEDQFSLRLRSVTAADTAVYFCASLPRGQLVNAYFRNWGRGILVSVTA
CH106 (human), sequence (light, as listed by the source, chain 2 of 2): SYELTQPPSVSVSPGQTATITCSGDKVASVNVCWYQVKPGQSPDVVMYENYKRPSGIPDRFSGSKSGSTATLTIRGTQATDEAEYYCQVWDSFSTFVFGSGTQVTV
CH103-S14P (human), sequence (heavy, as listed by the source, chain 1 of 2): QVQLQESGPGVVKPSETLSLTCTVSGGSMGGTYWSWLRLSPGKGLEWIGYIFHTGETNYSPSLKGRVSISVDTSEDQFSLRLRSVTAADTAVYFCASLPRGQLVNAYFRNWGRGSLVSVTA
CH103-S14P (human), sequence (light, as listed by the source, chain 2 of 2): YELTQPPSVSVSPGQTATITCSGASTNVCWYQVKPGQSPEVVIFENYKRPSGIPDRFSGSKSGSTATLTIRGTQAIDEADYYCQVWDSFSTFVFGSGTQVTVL
CH103-S14P/G30S (human), sequence (heavy, as listed by the source, chain 1 of 2): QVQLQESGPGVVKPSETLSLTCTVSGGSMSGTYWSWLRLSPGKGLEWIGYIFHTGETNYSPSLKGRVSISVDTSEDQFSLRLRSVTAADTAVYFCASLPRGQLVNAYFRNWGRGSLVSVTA
CH103 (human), sequence (heavy, as listed by the source, chain 1 of 2): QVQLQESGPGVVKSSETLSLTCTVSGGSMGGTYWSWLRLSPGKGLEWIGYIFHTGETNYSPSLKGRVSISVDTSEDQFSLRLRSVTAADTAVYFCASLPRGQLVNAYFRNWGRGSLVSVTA

Work on B.63521 D11 gp120 (domain or fragment) yielded a Kd (CH103-S14P (human) [1]) of 2.1 nM, a koff (CH103-S14P (human) [1]) of 2e-05 s⁻¹ and a kon (CH103-S14P (human) [1]) of 9100 M⁻¹ s⁻¹. The koff [2] was 0.0225 s⁻¹, the kon [2] was 5300 M⁻¹ s⁻¹ and the koff (CH103 (human) [3]) was 2e-05 s⁻¹. For the same substance, the kon (CH103 (human) [3]) was 15000 M⁻¹ s⁻¹, the koff (CH106 (human) [4]) was 0.000229 s⁻¹ and the kon (CH106 (human) [4]) was 16000 M⁻¹ s⁻¹. The Kd (CH103-S14P/G30S (human) [5]) was 4 nM, the koff (CH103-S14P/G30S (human) [5]) was 2.9e-05 s⁻¹ and the kon (CH103-S14P/G30S (human) [5]) was 8210 M⁻¹ s⁻¹. The Kd [6] was 680000 nM, the koff [6] was 0.113 s⁻¹ and the kon [7] was 170 M⁻¹ s⁻¹. For the same substance, the Kd (CH103 (human) [8]) was 1.1 nM, the Kd (CH106 (human) [9]) was 14.2 nM and the Kd [10] was 4200 nM. It also gave a fold faster ka than I8 [10] greater than 50 fold.
With C.CH505TF SOSIP.664.v4.1 (complex) the Kd (UCA-P14S (human)) was 1700 nM, the Kd (CH103 UCA (human) [11]) was 1500 nM and the Kd (UCA-S30G (human)) was 1800 nM. It also gave a Kd (I4-S14P/G30S (human) [12]) of 160 nM, a Kd (CH103 (human) [13]) of 16 nM and a Kd (UCA-S30G/S31G (human)) of 800 nM. For the same substance, the Kd (CH106 (human) [14]) was 5 nM and the Kd (CH103-S14P/G30S (human) [15]) was 150 nM.
C.CH505TF.SOSIP.664.v4.1 (complex) gave a koff (CH103 UCA-P14S (human)) of 0.0015 s⁻¹, a kon (CH103 UCA-P14S (human)) of 900 M⁻¹ s⁻¹ and a Kd (CH103-S14P (human) [16]) of 20 nM. The koff (CH103-S14P (human) [16]) was 1.8e-05 s⁻¹, the kon (CH103-S14P (human) [16]) was 890 M⁻¹ s⁻¹ and the koff (CH103 UCA (human) [17]) was 0.00168 s⁻¹. The kon (CH103 UCA (human) [17]) was 1100 M⁻¹ s⁻¹, the koff [18] was 0.0012 s⁻¹ and the kon [18] was 1400 M⁻¹ s⁻¹. The koff (CH103 UCA-S30G (human)) was 0.0015 s⁻¹, the kon (CH103 UCA-S30G (human)) was 860 M⁻¹ s⁻¹ and the koff (I4-S14P/G30S (human) [19]) was 0.00034 s⁻¹. For the same substance, the kon (I4-S14P/G30S (human) [19]) was 2120 M⁻¹ s⁻¹, the koff (CH103 (human) [20]) was 1.5e-05 s⁻¹ and the kon (CH103 (human) [20]) was 930 M⁻¹ s⁻¹. For the same substance, the koff (CH106 (human) [21]) was 3.6e-06 s⁻¹, the kon (CH106 (human) [21]) was 670 M⁻¹ s⁻¹ and the Kd (I4-S14P (human)) was 109 nM. It also gave a koff (I4-S14P (human)) of 0.00027 s⁻¹, a kon (I4-S14P (human)) of 2460 M⁻¹ s⁻¹ and a koff (CH103-S14P/G30S (human) [22]) of 6.6e-05 s⁻¹. For the same substance, the kon (CH103-S14P/G30S (human) [22]) was 450 M⁻¹ s⁻¹.
With CH103 (antibody) the IC80 of neutralisation of the autologous CH505TF Env-pseudovirus, TZM-bl cells (Env on the virus, not the SOSIP trimer) [23] was 6.4 µg/mL.
CH103-S14P (antibody) gave an IC80 of neutralisation of the autologous CH505TF Env-pseudovirus, TZM-bl cells (Env on the virus, not the SOSIP trimer) [23] of 12.8 µg/mL.
Work on CH103-S14P/G30S (antibody) yielded an IC80 of neutralisation of the autologous CH505TF Env-pseudovirus, TZM-bl cells (Env on the virus, not the SOSIP trimer) [23] of 15.5 µg/mL.
Work on I4-S14P (antibody) yielded an IC50 of neutralisation of the autologous CH505TF Env-pseudovirus, TZM-bl cells (Env on the virus, not the SOSIP trimer) [23] of 14.8 µg/mL, an IC80 of neutralisation of the autologous CH505TF Env-pseudovirus, TZM-bl cells (Env on the virus, not the SOSIP trimer) [23] greater than 50 µg/mL and a Kd [24] of 40 nM. For the same substance, the koff [24] was 0.00053 s⁻¹ and the kon [24] was 13100 M⁻¹ s⁻¹.
For I4-S14P/G30S (antibody), the IC50 of neutralisation of the autologous CH505TF Env-pseudovirus, TZM-bl cells (Env on the virus, not the SOSIP trimer) [23] was 43.2 µg/mL, the IC80 of neutralisation of the autologous CH505TF Env-pseudovirus, TZM-bl cells (Env on the virus, not the SOSIP trimer) [23] was greater than 50 µg/mL and the Kd [24] was 100 nM. For the same substance, the koff [24] was 0.00101 s⁻¹ and the kon [24] was 10000 M⁻¹ s⁻¹.
